Results on three molecules are retold here after article PMC8319186, “Mitochondrial adaptor TRAK2 activates and functionally links opposing kinesin and dynein motors” (Nature Communications, 2021).

In test [1] the target is dynein heavy chain (endogenous, COS-7). The test can be described thus: co-immunoprecipitation (Halo antibody IP, western blot quantification). Particulars: extracts from COS-7 cells transfected with Myc-KIF5B and Halo-tagged constructs; mean ± s.d. from three independent experiments; parent: est. 0.21; read off a plot. On the technique in general: A western blot detects proteins with antibodies after separation by electrophoresis.

In test [2] the target is T1, Myc-KIF5C-Halo (mouse, UniProt P28738 1-956).
T1 sequence (looked up): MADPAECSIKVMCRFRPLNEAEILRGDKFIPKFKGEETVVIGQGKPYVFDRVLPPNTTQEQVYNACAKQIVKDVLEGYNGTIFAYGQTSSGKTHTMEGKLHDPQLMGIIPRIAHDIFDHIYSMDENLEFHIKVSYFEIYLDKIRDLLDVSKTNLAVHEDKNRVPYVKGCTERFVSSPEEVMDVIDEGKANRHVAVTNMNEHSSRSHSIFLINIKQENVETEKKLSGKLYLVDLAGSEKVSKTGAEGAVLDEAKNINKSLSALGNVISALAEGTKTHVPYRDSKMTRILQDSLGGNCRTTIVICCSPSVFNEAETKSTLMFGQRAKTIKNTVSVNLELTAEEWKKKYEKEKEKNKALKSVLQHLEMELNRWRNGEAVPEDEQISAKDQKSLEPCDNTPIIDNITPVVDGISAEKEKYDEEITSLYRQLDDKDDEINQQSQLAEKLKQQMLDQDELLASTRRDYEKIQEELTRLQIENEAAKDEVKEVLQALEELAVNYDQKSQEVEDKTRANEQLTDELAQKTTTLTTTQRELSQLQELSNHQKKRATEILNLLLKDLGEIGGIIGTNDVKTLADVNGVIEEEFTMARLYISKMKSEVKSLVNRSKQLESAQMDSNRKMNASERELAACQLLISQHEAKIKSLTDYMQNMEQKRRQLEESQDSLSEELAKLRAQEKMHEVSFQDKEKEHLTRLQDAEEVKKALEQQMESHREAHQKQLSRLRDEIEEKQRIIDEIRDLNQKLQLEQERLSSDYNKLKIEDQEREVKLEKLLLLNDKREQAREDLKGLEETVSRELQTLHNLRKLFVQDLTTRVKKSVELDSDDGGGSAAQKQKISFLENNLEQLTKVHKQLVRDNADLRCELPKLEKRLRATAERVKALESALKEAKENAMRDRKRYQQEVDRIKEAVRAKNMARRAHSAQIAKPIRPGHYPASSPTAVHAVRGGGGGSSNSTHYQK
The test can be described thus: cell-based or functional assay.

In the case of “Halo-TRAK2 (from UniProt O60296) A129V; A130V”, the response in test [1] was 0.08.

Halo-TRAK2 (from UniProt O60296) I132D: the response in test [1] turned out to be 0.07.

B1: HA-TRAK2 (natural protein, UniProt O60296 1-914, looked up)
chain: MSQSQNAIFTSPTGEENLMNSNHRDSESITDVCSNEDLPEVELVSLLEEQLPQYRLKVDTLFLYENQDWTQSPHQRQHASDALSPVLAEETFRYMILGTDRVEQMTKTYNDIDMVTHLLAERDRDLELAARIGQALLKRNHVLSEQNESLEEQLGQAFDQVNQLQHELCKKDELLRIVSIASEESETDSSCSTPLRFNESFSLSQGLLQLEMLQEKLKELEEENMALRSKACHIKTETVTYEEKEQQLVSDCVKELRETNAQMSRMTEELSGKSDELIRYQEELSSLLSQIVDLQHKLKEHVIEKEELKLHLQASKDAQRQLTMELHELQDRNMECLGMLHESQEEIKELRSRSGPTAHLYFSQSYGAFTGESLAAEIEGTMRKKLSLDEESSLFKQKAQQKRVFDTVRIANDTRGRSISFPALLPIPGSNRSSVIMTAKPFESGLQQTEDKSLLNQGSSSEEVAGSSQKMGQPGPSGDSDLATALHRLSLRRQNYLSEKQFFAEEWQRKIQVLADQKEGVSGCVTPTESLASLCTTQSEITDLSSASCLRGFMPEKLQIVKPLEGSQTLYHWQQLAQPNLGTILDPRPGVITKGFTQLPGDAIYHISDLEEDEEEGITFQVQQPLEVEEKLSTSKPVTGIFLPPITSAGGPVTVATANPGKCLSCTNSTFTFTTCRILHPSDITQVTPSSGFPSLSCGSSGSSSSNTAVNSPALSYRLSIGESITNRRDSTTTFSSTMSLAKLLQERGISAKVYHSPISENPLQPLPKSLAIPSTPPNSPSHSPCPSPLPFEPRVHLSENFLASRPAETFLQEMYGLRPSRNPPDVGQLKMNLVDRLKRLGIARVVKNPGAQENGRCQEAEIGPQKPDSAVYLNSGSSLLGGLRRNQSLPVIMGSFAAPVCTSSPKMGVLKED
For B1, in test [2], the “frequency of KIF5C runs along dynamic microtubules (single-molecule TIRF of COS-7 lysate) with against without exogenous HA-TRAK2” value was more than 3 fold.
